Data reported in EP4810516A1 (Shanghai Shengdi Pharmaceutical Co., Ltd., dated 2026).

Columns and labels:
[1] = target: T1, human GPC3 naturally expressed on tumor cells (human, UniProt P51654 25-580); test: FACS on HepG2 cells (natural human GPC3), anti-human Fc secondary
T1 construct: whole, on cells; also called GPC3 on HepG2 cells; GPC3 on Huh-7 cells

[2] = target: T2, cynomolgus monkey GPC3 (Acrobiosystems, Cat#GP3-C5225) (cynomolgus monkey, UniProt A0A2K5VK50 24-558); test: SPR (Biacore 8K), antibody captured on Protein A chip, antigen as analyte
T2 construct: Bought protein

[3] = target: T3, human GPC3 (Sino Biological, Cat#10088-H08H) (human, UniProt P51654 25-559); test: as above
T3 construct: Bought protein; also called human GPC3 protein
T3 sequence (P51654 25-559 limits assumed): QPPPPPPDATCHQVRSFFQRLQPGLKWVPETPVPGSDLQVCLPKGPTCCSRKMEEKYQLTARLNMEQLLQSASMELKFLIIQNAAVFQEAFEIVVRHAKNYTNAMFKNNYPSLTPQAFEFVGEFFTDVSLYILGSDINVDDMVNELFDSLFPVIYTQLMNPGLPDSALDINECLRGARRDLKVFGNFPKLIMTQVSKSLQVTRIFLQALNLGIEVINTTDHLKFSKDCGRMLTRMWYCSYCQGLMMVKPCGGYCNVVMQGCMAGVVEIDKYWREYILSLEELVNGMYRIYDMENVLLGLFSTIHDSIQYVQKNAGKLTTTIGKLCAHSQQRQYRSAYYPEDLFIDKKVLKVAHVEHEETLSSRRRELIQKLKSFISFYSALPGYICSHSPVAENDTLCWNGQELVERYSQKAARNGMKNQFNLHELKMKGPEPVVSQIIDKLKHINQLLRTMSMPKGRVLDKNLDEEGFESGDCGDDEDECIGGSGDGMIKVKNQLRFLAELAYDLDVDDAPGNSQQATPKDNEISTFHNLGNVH

[4] = target: T1, human GPC3 naturally expressed on tumor …; test: cell-based or functional assay
[5] = target: T4, recombinant monkey (Macaca mulatta) γ9δ2 TCR protein (monkey (Macaca mulatta); called …); test: SPR (Biacore 8K), antibody captured on Protein A chip, antigen as analyte
T4 construct: also called Monkey γ9δ2 TCR; Cynomolgus monkey γ9δ2
T4 V domain 1: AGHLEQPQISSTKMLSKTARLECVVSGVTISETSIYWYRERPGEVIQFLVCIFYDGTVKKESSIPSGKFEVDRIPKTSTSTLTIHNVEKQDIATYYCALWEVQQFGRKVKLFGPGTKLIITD
T4 V domain 2: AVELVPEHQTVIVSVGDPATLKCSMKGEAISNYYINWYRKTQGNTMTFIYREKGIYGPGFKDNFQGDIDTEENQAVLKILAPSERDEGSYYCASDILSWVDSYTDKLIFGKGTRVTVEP

[6] = target: T1, human GPC3 naturally expressed on tumor …; test: cell-based or functional assay; remark: listed apart in the source
[7] = target: T5, recombinant human γ8δ2 TCR protein (human); test: ELISA, plate coated with 1 µg/mL recombinant TCR protein, antibody at 30 nM
T5 chain 1: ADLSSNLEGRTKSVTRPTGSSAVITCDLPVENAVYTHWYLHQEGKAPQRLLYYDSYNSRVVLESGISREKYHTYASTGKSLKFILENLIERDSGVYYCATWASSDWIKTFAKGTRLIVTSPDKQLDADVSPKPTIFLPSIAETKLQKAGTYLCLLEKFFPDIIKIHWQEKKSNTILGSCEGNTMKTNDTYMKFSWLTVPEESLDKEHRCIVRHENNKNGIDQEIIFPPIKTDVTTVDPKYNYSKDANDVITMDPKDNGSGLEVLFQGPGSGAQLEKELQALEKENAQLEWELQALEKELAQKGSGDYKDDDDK
T5 chain 2: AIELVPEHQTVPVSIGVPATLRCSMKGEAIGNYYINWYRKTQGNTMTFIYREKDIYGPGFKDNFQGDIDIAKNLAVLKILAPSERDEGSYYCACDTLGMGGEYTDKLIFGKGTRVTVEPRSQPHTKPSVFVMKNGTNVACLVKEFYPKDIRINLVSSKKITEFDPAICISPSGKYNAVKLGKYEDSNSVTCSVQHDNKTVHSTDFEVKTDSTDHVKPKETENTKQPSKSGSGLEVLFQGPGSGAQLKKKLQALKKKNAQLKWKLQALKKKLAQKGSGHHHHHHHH

[8] = target: T5, recombinant human γ8δ2 TCR protein; test: ELISA, plate coated with 1 µg/mL recombinant TCR protein

T1 sequence (P51654 25-580, form in doubt): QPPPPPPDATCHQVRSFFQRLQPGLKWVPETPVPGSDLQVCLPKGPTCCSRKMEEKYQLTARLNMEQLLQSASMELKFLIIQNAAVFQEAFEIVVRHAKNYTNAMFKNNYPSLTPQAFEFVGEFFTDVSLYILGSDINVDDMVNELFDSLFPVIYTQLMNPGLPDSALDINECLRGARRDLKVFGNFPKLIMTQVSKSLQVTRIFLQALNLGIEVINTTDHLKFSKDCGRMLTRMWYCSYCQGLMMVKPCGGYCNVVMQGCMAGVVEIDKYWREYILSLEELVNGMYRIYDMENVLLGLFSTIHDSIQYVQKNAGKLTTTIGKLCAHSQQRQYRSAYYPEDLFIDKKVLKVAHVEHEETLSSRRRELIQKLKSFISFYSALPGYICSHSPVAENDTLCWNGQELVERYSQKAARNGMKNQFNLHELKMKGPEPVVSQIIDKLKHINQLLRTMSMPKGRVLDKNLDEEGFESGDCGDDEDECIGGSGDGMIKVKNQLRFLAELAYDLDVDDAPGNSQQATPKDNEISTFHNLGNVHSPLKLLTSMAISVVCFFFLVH

Binder | EC50 [1] [nM] | Kd [2] [nM] | Kd [3] [nM] | γδT killing of HepG2, EC50 (LDH assay) [4] [nM] | γδT killing of HepG2, Emax (LDH assay) [4] [%] | γδT killing of Huh-7, EC50 (LDH assay) [4] [nM] | γδT killing of Huh-7, Emax (LDH assay) [4] [%] | γδT killing of MKN-45, EC50 (LDH assay) [4] [nM] | γδT killing of MKN-45, Emax (LDH assay) [4] [%] | Kd [5] [nM] | Killing activity against HepG2, EC50, γδ T cells of donor #SC12004 (LDH assay) [6] [nM] | Killing activity against HepG2, EC50, γδ T cells of donor #SC12392 (LDH assay) [6] [nM] | Killing activity against HepG2, EC50, γδ T cells of donor #XC11053 (LDH assay) [6] [nM] | Killing activity against HepG2, EC50, γδ T cells of donor #XC11061 (LDH assay) [6] [nM] | absorbance at 450 nm [7] [absorbance at 450 nm] | binding result [8]
SDP01696 (bispecific antibody, human IgG1, kappa, also called anti-GPC3/γδTCR bispecific antibody (1+1, with SDP01315H2L2)) heavy 1: not shown light 1: DIQMTQSPSSVSASVGDRVTITCKASQNVGTNVAWYQQKPGKAPKALIYSASYRYSGVPSRFSGSGSGTDFTLTISSLQPEDFATYYCQQYNSFPLTFGQGTKLEIKGGGGSGIPPKIECLPIDISIDEGKVLTVASAFTGEPTPEVTWSTGGRKIHSQEQGRFHIENTDDSTTLTIKDVQKQDGGLYTLTLRNEFGSDSATVNIHIRSI heavy 2: QVQLVQSGAEVKKPGASVKVSCKASGYTFTDYEMHWVRQAPGQGLEWMGALDPKTGDTAYSQKFKGRVTLTADKSTSTAYMELSSLTSEDTAVYYCTRFYSYTYWGQGTLVTVSSASTKGPSVFPLAPSSKSTSGGTAALGCLVKDYFPEPVTVSWNSGALTSGVHTFPAVLQSSGLYSLSSVVTVPSSSLGTQTYICNVNHKPSNTKVDKKVEPKSCDKTHTCPPCPAPEFEGGPSVFLFPPKPKDTLMISRTPEVTCVVVDVSHEDPEVKFNWYVDGVEVHNAKTKPREEQYNSTYRVVSVLTVLHQDWLNGKEYKCKVSNKALPAPIEKTISKAKGQPREPQVCTLPPSREEMTKNQVSLSCAVKGFYPSDIAVEWESNGQPENNYKTTPPVLDSDGSFFLVSKLTVDKSRWQQGNVFSCSVMHEALHNHYTQKSLSLSPGK light 2: DVVMTQSPLSLPVTPGEPASISCRSSQSLVHSNRNTYLHWYLQKPGQSPQLLIYKVSNRFSGVPDRFSGSGSGTDFTLKISRVEAEDVGVYYCSQNTHVPPTFGQGTKLEIKRTVAAPSVFIFPPSDEQLKSGTASVVCLLNNFYPREAKVQWKVDNALQSGNSQESVTEQDSKDSTYSLSSTLTLSKADYEKHKVYACEVTHQGLSSPVTKSFNRGEC | 5.17 | 1.47 | 1.74 | 0.06 | 70.1 | 0.21 | 50.9 | 0.024 | 11 | 42.4 |  |  |  |  |  | 
SDP01704 (bispecific antibody, human IgG1, kappa, Bivalent for GPC3; also called anti-GPC3/γδTCR bispecific antibody (2+1, with SDP01315H2L2)) heavy 1: not shown light 1: DIQMTQSPSSVSASVGDRVTITCKASQNVGTNVAWYQQKPGKAPKALIYSASYRYSGVPSRFSGSGSGTDFTLTISSLQPEDFATYYCQQYNSFPLTFGQGTKLEIKGGGGSGIPPKIECLPIDISIDEGKVLTVASAFTGEPTPEVTWSTGGRKIHSQEQGRFHIENTDDSTTLTIKDVQKQDGGLYTLTLRNEFGSDSATVNIHIRSI heavy 2: QVQLVQSGAEVKKPGASVKVSCKASGYTFTDYEMHWVRQAPGQGLEWMGALDPKTGDTAYSQKFKGRVTLTADKSTSTAYMELSSLTSEDTAVYYCTRFYSYTYWGQGTLVTVSSASTKGPSVFPLAPSSKSTSGGTAALGCLVKDYFPEPVTVSWNSGALTSGVHTFPAVLQSSGLYSLSSVVTVPSSSLGTQTYICNVNHKPSNTKVDKKVEPKSCDGGGGSGGGGSQVQLVQSGAEVKKPGASVKVSCKASGYTFTDYEMHWVRQAPGQGLEWMGALDPKTGDTAYSQKFKGRVTLTADKSTSTAYMELSSLTSEDTAVYYCTRFYSYTYWGQGTLVTVSSASTKGPSVFPLAPSSKSTSGGTAALGCLVKDYFPEPVTVSWNSGALTSGVHTFPAVLQSSGLYSLSSVVTVPSSSLGTQTYICNVNHKPSNTKVDKKVEPKSCDKTHTCPPCPAPEFEGGPSVFLFPPKPKDTLMISRTPEVTCVVVDVSHEDPEVKFNWYVDGVEVHNAKTKPREEQYNSTYRVVSVLTVLHQDWLNGKEYKCKVSNKALPAPIEKTISKAKGQPREPQVCTLPPSREEMTKNQVSLSCAVKGFYPSDIAVEWESNGQPENNYKTTPPVLDSDGSFFLVSKLTVDKSRWQQGNVFSCSVMHEALHNHYTQKSLSLSPGK light 2: DVVMTQSPLSLPVTPGEPASISCRSSQSLVHSNRNTYLHWYLQKPGQSPQLLIYKVSNRFSGVPDRFSGSGSGTDFTLKISRVEAEDVGVYYCSQNTHVPPTFGQGTKLEIKRTVAAPSVFIFPPSDEQLKSGTASVVCLLNNFYPREAKVQWKVDNALQSGNSQESVTEQDSKDSTYSLSSTLTLSKADYEKHKVYACEVTHQGLSSPVTKSFNRGEC | 2.47 | 1.63 | 1.84 | 0.03 | 72 | 0.11 | 61.7 | 0.016 | 6.6 | 40.6 |  |  |  |  |  | 
SDP01716 (bispecific antibody, human IgG1, kappa, Knob-into-hole IgG1 Fc with L234F/L235E; also called anti-GPC3/γδTCR bispecific antibody (1+1, with SDP01346H4)) heavy 1: not shown heavy 2: QVQLVQSGAEVKKPGASVKVSCKASGYTFTDYEMHWVRQAPGQGLEWMGALDPKTGDTAYSQKFKGRVTLTADKSTSTAYMELSSLTSEDTAVYYCTRFYSYTYWGQGTLVTVSSASTKGPSVFPLAPSSKSTSGGTAALGCLVKDYFPEPVTVSWNSGALTSGVHTFPAVLQSSGLYSLSSVVTVPSSSLGTQTYICNVNHKPSNTKVDKKVEPKSCDKTHTCPPCPAPEFEGGPSVFLFPPKPKDTLMISRTPEVTCVVVDVSHEDPEVKFNWYVDGVEVHNAKTKPREEQYNSTYRVVSVLTVLHQDWLNGKEYKCKVSNKALPAPIEKTISKAKGQPREPQVCTLPPSREEMTKNQVSLSCAVKGFYPSDIAVEWESNGQPENNYKTTPPVLDSDGSFFLVSKLTVD light: DVVMTQSPLSLPVTPGEPASISCRSSQSLVHSNRNTYLHWYLQKPGQSPQLLIYKVSNRFSGVPDRFSGSGSGTDFTLKISRVEAEDVGVYYCSQNTHVPPTFGQGTKLEIKRTVAAPSVFIFPPSDEQLKSGTASVVCLLNNFYPREAKVQWKVDNALQSGNSQESVTEQDSKDSTYSLSSTLTLSKADYEKHKVYACEVTHQGLSSPVTKSFNRGEC | 4.85 | 1.47 | 1.65 | 0.01 | 70.3 | 0.06 | 93.8 | 0.004 | 10.3 | 68.8 | 0.038 | 0.033 | 0.017 | 0.054 |  | 
SDP01346 (VHH, not shown: small tags and cut ends, also called clone No. ac-025; anti-γδTCR single-domain antibody) VHH: QVQLVESGGGLVQAGGSLRLSCTVSGSTFSDFAMGWLRQAPGKEREFVAAISWTGGRTYYADSVKGRFAISRDNGENTVYLQMNSLKSEDTAIYYCAASRDCSGPGCRVHEYDYWGQGTQVTVSS |  |  |  |  |  |  |  |  |  |  |  |  |  |  | 0.108 | 
SDP01315 (antibody, V domains shown, Tested as a chimeric antibody (Protein A purified, detected with anti-human Fc); also called clone No. bph-003; murine-derived anti-γδTCR antibody) VH: EVKLVESGGGLVKPGGSLKLSCAASGFTFSSYAMSWVRQTPEKRLEWVASISSGGSTYYPDSVKGRFTISRDNARNILYLQMSSLRSEDTAMYYCARDGYPPFDYWGQGTTLTVSS VL: DIVMTQSQKFMSTSVGDRVSVTCKASQNVGTNVAWYQQKPGQSPKALIYSASYRYSGVPDRFTGSGSGTDFTLTISNVQSEDLAEYFCQQYNSFPLTFGSGTKLEIK |  |  |  |  |  |  |  |  |  |  |  |  |  |  | 0.192 | no binding (tested: 30 nM)
